{"source": "patent US10543284B2", "about": "“Anti-c-Met antibody and anti-c-Met antibody-cytotoxic drug conjugate and pharmaceutical use thereof” (Suzhou Suncadia Biopharmaceuticals Co., Ltd., priority 2015, dated 2020)", "key": {"[1]": {"test_system": "human gastric cancer MKN45 cell model", "test": "MKN45 subcutaneous xenograft in BALB/c nude mice (Example 10)", "assay_type": "in vivo", "details": "5 mg/kg antibody, terminated at day 25", "experimental": "The human gastric cancer MKN45 cell model, obtained by subcutaneous xenograft into BALB/c nude mice, was used to evaluate the antitumor activity of the antibodies.\nMKN45 cells were cultured in a monolayer in RPMI-1640 medium (10%/FBS) at 37° C. in 5% CO2. The cells were counted and collected during the logarithmic phase. The cells were resuspended in PBS to an appropriate concentration, and 0.1 ml 3×10^6 cells were subcutaneously injected into the right wing of mice (BALB/c nude mouse, female, 10-week old, 22-28 g, from Shanghai SLAC experimental animal ltd. Licence No. 2007000548777; Environment: SPF grade). When the tumors' average volume reached 114 mm^3, the tumors' weights and volumes were measured, and mice were then separated into groups for treatment. The control group was treated with PBS, and the antibody therapy group was treated with 5 mg/kg antibody of the invention, and the frequency was once a week and twice per time. The tumors' volumes and weights were measured twice a week, and the experiment was terminated at day 25. The formula for calculating tumor size was: tumor volume (mm^3)=0.5×(tumor length×tumor diameter^2)."}, "[2]": {"test_system": "H441 cells", "test": "Agonist test: H441 cell migration", "assay_type": "cell-based, human", "details": "Antibody 20 μg/ml; migration affected by HGF (200 ng/ml) set as 100%", "source_text": "If anti c-Met antibodies have agonist activity, the migration ability of cells could be affected. The H441 cell line expressing c-Met is used in the invention to evaluate the ability of c-Met antibodies to affect cell migration. H441 cells (ATCC, Cat No.: HTB-174) were resuspended to 500,000 cells/ml in RPMI 1640 medium (GIBCO, Cat No.: 11835-030) which contains 10% (v/v) FBS (GIBCO, Cat No.: 10099-141) and penicillin-streptomycin (GIBCO, Cat No.: 15070-063). The resuspended H441 cells were added to a 12-well culture plate (Costar, Cat No. 3513) at 1 ml/well, and were cultured for 3 days at 37° C. in 5% CO2. Cells were washed twice with PBS, and RPMI 1640 medium containing 0.5% FBS was added, and the plate was cultured for 16 hours at 37° C. in 5% CO2. The bottom of each well was scratched with 5 ml tips, and the plate was washed once with medium containing low concentration of FBS, and 1 ml of RPMI 1640 medium containing a low concentration of serum was added. The plate was marked, photos were taken for randomly selected scratch areas under an inverted microscope at 4× magnification. This time was set as the starting point. […] The percentage of cell migration was measured as the migration distance relative to the starting point divided by the migration distance of the test group relative to the starting point, and then multiplied by 100."}, "[3]": {"test_system": "MKN45 cells expressing c-Met", "test": "Endocytosis of anti c-Met antibody in MKN45 cells (FACS)", "assay_type": "cell-based, human", "details": "10 μg/ml", "experimental": "Antibodies of the invention could bind to human c-Met, have very good in vitro activity, and inhibit tumor activity in vivo. […] In order to detect whether the antibody could be taken up into the cell along with human c-Met once bound to human c-Met, the human gastric cancer cell line MKN45 (JCRB, Cat No.: JCRB0254) expressing c-Met was used for evaluation. […] The plate was incubated at 4° C. for 1 hour. FACS buffer (phosphate buffer solution including 2.5% fetal bovine serum; Hyclone, Cat: SH30256.01B) was added, and the plate was centrifuged at 4° C., 1300 rpm for 4 minutes. The supernatant was discarded, and this procedure was repeated three times. 100 μl secondary antibody solution (Fluorescence labeled goat anti mouse secondary antibodies at 1:200 dilution, Biolegend, Cat No. 405307; Fluorescence labeled anti-human secondary antibody at 1:30 dilution, Biolegend, Cat No. 409304) was added into each well, and the plate was incubated at 4° C. for 1 hour. FACS buffer was added and the plate was centrifuged at 4° C., 1300 rpm for 4 minutes. The supernatant was discarded, and this procedure was repeated three times. […] FACS buffer was added and the plate was centrifuged at 4° C., 1300 rpm for 4 minutes. The supernatant was discarded, and this procedure was repeated three times. 200 μl Stripping buffer (0.05 M glycine, pH 3.0; 0.1 M NaCl, mixed in accordance with 1:1 (v/v)) was added to each well. The cells were resuspended and were incubated for 7 minutes at room temperature. The cells were centrifuged at room temperature at 1300 rpm for 4 minutes, and the supernatant was discarded. 200 μl neutralizing wash buffer (0.15M trihydroxymethyl aminomethane, pH 7.4) was added to each well, the cells were resuspended and centrifuged at room temperature at 1300 rpm for 4 minutes, and the supernatant was discarded. 200 μl FACS buffer was added, and the cells were resuspended. Samples were prepared and detected by flow cytometry (BD FACS Calibur). Endocytosis of c-Met antibody %=(intensity of fluorescence at various time points−average intensity of fluorescence at time 0)/average intensity of fluorescence at time 0."}, "[4]": {"test_system": "MKN45 cells", "test": "Inhibition of proliferation of MKN45 gastric cancer cells (CellTiter-Glo, 5 days)", "assay_type": "cell-based, human", "source_text": "The clones above were selected and further cultured to obtain monoclones. After verification of binding activity by ELISA, monoclones were selected for cultivation, and the resulting supernatant was subjected to a cell viability assay. According to the experiment principle, anti-human c-Met antibodies of the invention are able to inhibit phosphorylation of c-Met expressed on the surface of human gastric cancer cell line MKN45, thereby inhibiting the proliferation of MNK45 cells.\nHuman gastric cancer cells (MKN45, JCRB, JCRB0254, P11) were added to a 96-well cell culture plate (costar, #3799) at 1×10^5 cells/mL and 50 μl/well. The medium was RPMI1640 medium: (GIBCO, cat #11835)+10% FBS (GIBCO-10099141). Anti-human c-Met antibodies to be tested were added at 50 μl/well, and the plate was cultured for 5 days in incubator at 37′C (Manufacture: SANYO; Equipment No. TINC035). CellTiter-Glo® Luminescent Cell Viability Assay (Promega, G7573) was used, and the proliferation of cells was detected according to the instructions. The plate was read by a PerkinElmer plate reader, TREA001-RDA-IBA100. The following formula was used to calculate the percentage proliferation of cells: % proliferation of cells=(1−cell reads in experimental group/cell reads in untreated group)×100%."}}, "data": [{"molecule": "Ab-9: humanized anti c-Met antibody: heavy chain sequence of SEQ ID NO: 23 and light chain sequence of SEQ ID NO: 26 (antibody, Ab-9 heavy chain; Ab-9 light chain) heavy: QVTLKESGPVLVKPTETLTLTCTVSGFSLPNYGVHWVRQPPGKALEWLAVIWSGGSTNYAAAFVSRLRISKDTSKSQVVFTMNNMDPVDTATYYCARNHDNPYNYAMDYWGQGTTVTVSSASTKGPSVFPLAPCSRSTSESTAALGCLVKDYFPEPVTVSWNSGALTSGVHTFPAVLQSSGLYSLSSVVTVPSSNFGTQTYTCNVDHKPSNTKVDKTVERKCCVECPPCPAPPVAGPSVFLFPPKPKDTLMISRTPEVTCVVVDVSHEDPEVQFNWYVDGVEVHNAKTKPREEQFNSTFRVVSVLTVVHQDWLNGKEYKCKVSNKGLPAPIEKTISKTKGQPREPQVYTLPPSREEMTKNQVSLTCLVKGFYPSDIAVEWESNGQPENNYKTTPPMLDSDGSFFLYSKLTVDKSRWQQGNVFSCSVMHEALHNHYTQKSLSLSPGK light: DIVLTQSPASLAVSPGQRATITCRANKSVSTSTYNYLHWYQQKPGQPPKLLIYLASNLASGVPARFSGSGSGTDFTLTINPVEANDTANYYCQHSRDLPPTFGQGTKLEIKRTVAAPSVFIFPPSDEQLKSGTASVVCLLNNFYPREAKVQWKVDNALQSGNSQESVTEQDSKDSTYSLSSTLTLSKADYEKHKVYACEVTHQGLSSPVTKSFNRGEC", "values": [{"measurement": "inhibition rate", "setting": "[1]", "value": 56, "unit": "%"}, {"measurement": "H441 migration (%)", "setting": "[2]", "value": 53, "unit": "%"}, {"measurement": "endocytosis % 0 h", "setting": "[3]; 0 h", "value": 0, "unit": "%"}, {"measurement": "endocytosis % 0.5 h", "setting": "[3]; 0.5 h", "value": 26, "unit": "%"}, {"measurement": "endocytosis % 1 h", "setting": "[3]; 1 h", "value": 32, "unit": "%"}, {"measurement": "endocytosis % 2 h", "setting": "[3]; 2 h", "value": 32, "unit": "%"}, {"measurement": "endocytosis % 4 h", "setting": "[3]; 4 h", "value": 31, "unit": "%"}, {"measurement": "Activity of inhibition of MKN45 cell proliferation Maximum inhibition rate (%)", "setting": "[4]", "value": 33, "unit": "%"}]}]}
